Test results published in the supplement of paper PMC9732359.
± gives the uncertainty stated by the source.

Experiment: protein stability index of a GFP-peptide fusion (yeast GPS) (PSI 1-4); higher = more stable; sorted into four equal gates, so the index is relative within each strain
Outline: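 Plasmids isolated from each sorting gate were PCR-amplified and Illumina-sequenced, and barcodes assigned the reads to strains. The gates, four of equal size, were set by GFP/Cherry fluorescence ratio on mid-log cultures in leucine-free medium. These cultures were yeast carrying a pooled library of tiled 17-residue yeast protein peptides fused downstream of GFP on a plasmid that also expresses Cherry. The protein stability index is the sum of every gate's read frequency times its gate number.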

Sequence | protein stability index (doa10∆) | protein stability index (pdr5∆) | protein stability index (san1∆) | protein stability index (ubr1∆)
KVAEVKKLEGTIEYQKL [RPT4] | 3.13 ± 0.12 | 3.16 ± 0.11 | 3.17 ± 0.074 | 3.57 ± 0.082
AYVAIEQVKDDGTSTEK [RPN8] | 2.48 ± 0.16 | 1.73 ± 0.13 | 3.23 ± 0.15 | 2.64 ± 0.085
MENIKKSIDSKTPEEVE [ISW2] | 2.92 ± 0.17 | 3.09 ± 0.23 | 3.13 ± 0.089 | 3.23 ± 0.11
MKEDGLSFVDIVLSKAA [SIR4] | 1.88 ± 0.1 | 2.8 ± 0.07 | 2.74 ± 0.12 | 2.22 ± 0.053
SHLVVPYCPIASITGTG [YMR129W/POM152] | 1.36 ± 0.065 | 1.37 ± 0.066 | 1.33 ± 0.1 | 1.36 ± 0.03
LSAENIEERLVAIAEQD [SCL1] | 3.22 ± 0.083 | 3.18 ± 0.089 | 3.33 ± 0.061 | 3.32 ± 0.066
HTKSDERSELLRLFNAP [SNF2] | 2.83 ± 0.06 | 2.72 ± 0.065 | 2.78 ± 0.049 | 3.04 ± 0.06
FGNIMDNLLEMSDHSLD [RRP6] | 2.42 ± 0.074 | 2.58 ± 0.065 | 1.89 ± 0.1 | 3.27 ± 0.05
LLVKLSKRLPLRFPEHT [BRR2] | 2.3 ± 0.063 | 2.75 ± 0.07 | 2.25 ± 0.17 | 2.42 ± 0.062
VDNIVNKYQYSLKQYAG [SRP68] | 3.09 ± 0.084 | 3.08 ± 0.076 | 2.71 ± 0.068 | 2.99 ± 0.055
MKMDKSPTESYSDIGGL [RPT2] | 3.21 ± 0.096 | 3.4 ± 0.096 | 3.38 ± 0.055 | 3.05 ± 0.059
GSNGELFGGRHYLFNTF [SWP82] | – | 2.97 ± 0.29 | – | –
SNESQNGKDSEIMYTGV [SMC3] | 3.46 ± 0.14 | 3.13 ± 0.27 | 3.03 ± 0.19 | –
SDLVNQGIIYAKVNRPA [RPN5] | 2.97 ± 0.15 | 3.66 ± 0.26 | 2.84 ± 0.17 | –
VIVPQIVLDEVRNKSYP [DIS3] | 2.68 ± 0.066 | 2.33 ± 0.089 | 2.79 ± 0.11 | 1.46 ± 0.04
WKEVLAHNPELERYVKR [RPO31] | 3.6 ± 0.11 | 3.85 ± 0.25 | 3.38 ± 0.1 | 3.45 ± 0.099
KDLDGWQVIITDDQGRV [SIR3] | 3.15 ± 0.093 | 3.03 ± 0.077 | 3.21 ± 0.068 | 3.35 ± 0.064
APYRKQIISNAHNKPSL [YAR002W/NUP60] | 2.17 ± 0.073 | 2.47 ± 0.081 | 2 ± 0.1 | 2.36 ± 0.085
DRVIFRVPIRSEYKVAF [PRP8] | 2.93 ± 0.069 | 2.71 ± 0.061 | 2.55 ± 0.077 | 2.42 ± 0.034
LFAFNGVARNFHFAIEQ [SIN4] | 3.01 ± 0.14 | 2.8 ± 0.079 | 2.55 ± 0.069 | 3.06 ± 0.064
QGNPKKRPGKLSDYIPG [CYT1] | 3.17 ± 0.066 | 3.24 ± 0.067 | 3.23 ± 0.044 | 3.17 ± 0.032
TSKSFSKLLYDDVTCDK [SIN4] | 3.01 ± 0.077 | 2.9 ± 0.051 | 2.7 ± 0.054 | 3.16 ± 0.039
ARLDGHDFLFNTIIRDG [RPN14] | 2.83 ± 0.091 | 2.95 ± 0.06 | 3.32 ± 0.056 | 2.81 ± 0.044
SSLHSPTSDEPVPESAG [SRB4] | 2.61 ± 0.065 | 3.16 ± 0.081 | 2.95 ± 0.063 | 3 ± 0.057
KFQLQNQLEDFILELEH [YIL149C/MLP2] | 2.72 ± 0.081 | 1.95 ± 0.099 | 2.11 ± 0.11 | 1.91 ± 0.086
PGNRNADNVDKILEQFE [FAS2] | 1.63 ± 0.11 | 1.53 ± 0.18 | 2.5 ± 0.19 | 2.5 ± 0.087
RQLTSLGSKKELGISLE [SNU114] | 3 ± 0.072 | 3.17 ± 0.079 | 3.14 ± 0.097 | 3.36 ± 0.062

Sequence | protein stability index (doa10∆) | protein stability index (pdr5∆) | protein stability index (san1∆) | protein stability index (ubr1∆)
MKVEIDSFSGAKIYPGR [RPL24A] | 3.35 ± 0.072 | 3.45 ± 0.12 | 3.25 ± 0.08 | 3.22 ± 0.1
SYINVTFRAVVFKPFLG [RPC25] | 1.52 ± 0.084 | 1.95 ± 0.061 | 2.26 ± 0.079 | 1.94 ± 0.056
DQKETKKGESEKDASGK [YOR098C/NUP1] | 3.45 ± 0.18 | 3.37 ± 0.15 | 3.49 ± 0.097 | 3.37 ± 0.1
LKEYQSKIIVFPRNGKA [RPL13A] | 3.04 ± 0.088 | 2.9 ± 0.091 | 2.98 ± 0.055 | 3 ± 0.076
VMRNEIRITSLQGDLTF [SIR4] | 2.8 ± 0.073 | 2.35 ± 0.062 | 2.65 ± 0.081 | 2.68 ± 0.063
IDELIDTKLRLEKSKNE [YIL149C/MLP2] | 2.62 ± 0.047 | 2.81 ± 0.045 | 2.8 ± 0.04 | 2.8 ± 0.032
PTEMEPDLDTECFISMQ [SWI1] | 3.27 ± 0.055 | 3.39 ± 0.052 | 3.23 ± 0.047 | 3.26 ± 0.058
KLHFKDTKPFLNKDSTN [NUT1] | 2.51 ± 0.098 | 2.23 ± 0.073 | 1.99 ± 0.071 | 2.6 ± 0.041
QTENDLKDIEARIKEKA [RPT1] | 2.8 ± 0.13 | 2.91 ± 0.11 | 3.03 ± 0.099 | 3.37 ± 0.065
QHEQQKQQEQLEQQKQP [YMR153W/NUP53] | 3.37 ± 0.056 | 3.35 ± 0.057 | 3.04 ± 0.049 | 3.15 ± 0.046
KGALMYGPPGTGKTLLA [RPT5] | 2.18 ± 0.074 | 2.24 ± 0.069 | 2.3 ± 0.18 | 1.35 ± 0.11
PAWRVWLNFLRGTIPLL [PRP8] | 2.38 ± 0.089 | 1.88 ± 0.071 | 1.33 ± 0.1 | 2.96 ± 0.083
STKKIQVATKYASLKLP [YMR129W/POM152] | 1.78 ± 0.047 | 1.93 ± 0.036 | 1.55 ± 0.069 | 1.92 ± 0.038
EELLLKDLEIRKLEISS [GAL11] | – | 2.31 ± 0.11 | 3.18 ± 0.081 | 1.09 ± 0.12
NQDSVKTYALESINNVV [RPN2] | 3.23 ± 0.1 | 3.21 ± 0.1 | 2.95 ± 0.074 | 3.31 ± 0.058
KDIEKLTNEISDLKGKL [YIL149C/MLP2] | 3.04 ± 0.11 | 3.12 ± 0.049 | 3.34 ± 0.067 | 3.17 ± 0.057
RAASAKIESSVESQFSA [RPS8A] | 3.11 ± 0.09 | 3.31 ± 0.083 | 2.53 ± 0.13 | 3.45 ± 0.14
MQRHVKVDGKVRTDTTY [RPS4A] | 3.26 ± 0.1 | 3.28 ± 0.083 | 3.03 ± 0.088 | 3.06 ± 0.063
KSHSTVSSSSRHHRKTE [ISW2] | 2.7 ± 0.055 | 2.69 ± 0.043 | 2.14 ± 0.052 | 2.88 ± 0.041
TCVAKKGIAKEHAKWGP [RPB3] | 3.31 ± 0.07 | 3.28 ± 0.08 | 3.21 ± 0.07 | 3.16 ± 0.047
NEDMVRRANFYKENEAM [SNF12] | 3.33 ± 0.11 | 3.48 ± 0.087 | 3.39 ± 0.057 | 3.48 ± 0.1
QLETLTGSIRHRLKLCK [CSE2] | 3.32 ± 0.26 | 3.05 ± 0.17 | – | 2.97 ± 0.21
TGSIRHRLKLCKSLISE [CSE2] | 3.49 ± 0.29 | – | – | –
NATVNLAMEAILNELEV [YJR042W/NUP85] | 2.7 ± 0.11 | 3 ± 0.11 | 2.58 ± 0.12 | 2.55 ± 0.11
NGTISKTGKKNKVAKKN [SRP14] | 3.51 ± 0.16 | 3.45 ± 0.19 | 3.09 ± 0.13 | 3.17 ± 0.076
TPAMIPYPGSPMHSIMP [DSN1] | 2.8 ± 0.037 | 2.67 ± 0.034 | 2.88 ± 0.036 | 2.846 ± 0.025
ISICMILCGIQEYLNPV [YDL116W/NUP84] | 1.97 ± 0.1 | 1.61 ± 0.11 | – | 1.87 ± 0.14
